The term koff denotes the first-order rate constant of dissociation. As usually defined, the kon is the rate constant with which the complex forms. Read a low kon as slow association. Broadly, the Kd is the constant that tells how readily two partners part at equilibrium.

The values that follow come from publication PMC2965030.

The target in test [1] is β2-glycoprotein I (human) (UniProt P02749). The test can be described thus: optical biosensor.
The target in test [2] is Glu-plasminogen (Homo sapiens) (UniProt P00747). The following applies: cited from earlier work.
Chain of Glu-plasminogen (Homo sapiens) (P00747 20-810): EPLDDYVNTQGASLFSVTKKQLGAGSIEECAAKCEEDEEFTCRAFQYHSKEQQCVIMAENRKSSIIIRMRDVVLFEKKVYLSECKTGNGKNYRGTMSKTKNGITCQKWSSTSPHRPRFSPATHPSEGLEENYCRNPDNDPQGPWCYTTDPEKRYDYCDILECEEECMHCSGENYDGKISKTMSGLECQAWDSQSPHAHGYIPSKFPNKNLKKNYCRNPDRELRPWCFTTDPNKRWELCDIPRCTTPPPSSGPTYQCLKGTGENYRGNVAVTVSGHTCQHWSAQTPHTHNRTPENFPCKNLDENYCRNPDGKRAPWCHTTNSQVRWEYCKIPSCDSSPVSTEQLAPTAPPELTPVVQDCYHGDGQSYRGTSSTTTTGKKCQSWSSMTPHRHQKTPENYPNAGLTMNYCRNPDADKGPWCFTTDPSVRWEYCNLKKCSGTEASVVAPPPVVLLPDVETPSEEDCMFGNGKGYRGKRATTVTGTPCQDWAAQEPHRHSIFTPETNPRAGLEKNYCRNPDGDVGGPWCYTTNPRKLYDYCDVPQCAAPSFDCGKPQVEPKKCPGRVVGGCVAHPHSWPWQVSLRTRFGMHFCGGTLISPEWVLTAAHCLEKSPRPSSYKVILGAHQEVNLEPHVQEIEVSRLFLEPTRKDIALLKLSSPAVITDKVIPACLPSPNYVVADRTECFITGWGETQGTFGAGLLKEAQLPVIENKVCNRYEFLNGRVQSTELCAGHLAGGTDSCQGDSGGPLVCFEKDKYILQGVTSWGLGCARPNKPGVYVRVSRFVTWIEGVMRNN

Chain of β2-glycoprotein I (human) (P02749 20-345): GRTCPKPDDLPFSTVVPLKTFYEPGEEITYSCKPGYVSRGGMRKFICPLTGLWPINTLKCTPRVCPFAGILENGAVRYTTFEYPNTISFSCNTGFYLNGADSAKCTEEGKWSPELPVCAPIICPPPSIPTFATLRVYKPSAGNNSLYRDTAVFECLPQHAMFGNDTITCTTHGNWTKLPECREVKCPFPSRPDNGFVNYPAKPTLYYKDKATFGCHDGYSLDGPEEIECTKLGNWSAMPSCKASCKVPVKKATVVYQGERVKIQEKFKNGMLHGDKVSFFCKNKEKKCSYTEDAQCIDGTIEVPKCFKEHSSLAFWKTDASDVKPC
Chain of β2-glycoprotein I (nicked) (P02749 20-345): as above

Turning to “tissue-type plasminogen activator (enzyme)”, in test [1], the koff turned out to be 0.00619 s⁻¹ and the kon came out at 113000 M⁻¹ s⁻¹.

Take “β2-glycoprotein I (nicked) (from UniProt P02749)”: the Kd in test [2] was 370 nM.
